Here are results for one protein from FireProtDB (doi:10.1021/bi035651x).

Where “and” joins values, the source holds several entries; their conditions need not be identical. Equal values may be shown once.

The conditions of this data set: Mus musculus, pH 7.4, 20 °C, Urea, Tris-HCl 20 mM, whole UniProt chain shown.

B1: Adenosine deaminase wild type, P03958 (protein)
chain: MAQTPAFNKPKVELHVHLDGAIKPETILYFGKKRGIALPADTVEELRNIIGMDKPLSLPGFLAKFDYYMPVIAGCREAIKRIAYEFVEMKAKEGVVYVEVRYSPHLLANSKVDPMPWNQTEGDVTPDDVVDLVNQGLQEGEQAFGIKVRSILCCMRHQPSWSLEVLELCKKYNQKTVVAMDLAGDETIEGSSLFPGHVEAYEGAVKNGIHRTVHAGEVGSPEVVREAVDILKTERVGHGYHTIEDEALYNRLLKENMHFEVCPWSSYLTGAWDPKTTHAVVRFKNDKANYSLNTDDPLIFKSTLDTDYQMTKKDMGFTEEEFKRLNINAAKSSFLPEEEKKELLERLYREYQ
As for B1, under “CD”, the denaturant m value was 0.89 kcal/mol/M and 0.77 kcal/mol/M; the “denaturant midpoint (higher = more stable)” value is 6.15 M and 5.77 M; the unfolding free energy was 22.9 kJ/mol and 18.6 kJ/mol. Where the note is “Fluorescence”, the denaturant m value amounted to 0.85 kcal/mol/M; the “denaturant midpoint (higher = more stable)” value is 6.08 M and 5.73 M; the unfolding free energy was 21.6 kJ/mol and 20.4 kJ/mol.
